Experimental data: patent US20110135573A1, “METALLOPROTEINASE 9 AND METALLOPROTEINASE 2 BINDING PROTEINS” (DYAX CORP., priority 2009, published 2011)

Assays:
Mouse MMP-9 = target: T1, Mouse MMP-9 (Mus musculus, UniProt P41245); assay: Ki measurement and inhibition model, fluorogenic substrate Mca-KPLGL-Dap(Dnp)-AR-NH2; type: biochemical; details: fluorogenic peptide substrates
T1 construct: purchased R&D Systems 909-MM (909-MM-010)
Protocol: (§1) This example characterized the interaction of the M0237-D02 hIgG1 with the human and mouse MMP-9. The Ki was measured and the inhibition mechanism was determined
(§2) Materials: • Substrate: Mca-KPLGL-Dap(Dnp)-AR-NH2 (M-2350) from BACHEM (521575). A 10 mM stock solution was prepared in DMSO. • Enzymes: • Human MMP-9 catalytic domain (BIOMOL, SE-244). Enzyme concentration was measured by titration with TIMP-1 (2522-104) • Mouse MMP-9 (R&D, 909-MM), APMA-activated. • M0237-D02 hIgG1: 2517-014. Dialysed against TCN. • TCNB: 50 mM Tris/HCl, 10 mM CaCl2, 150 mM NaC, […], pH 7.5. • -96-well black plates from Perkin Elmer (6005270) • Spectramax M2e to measure fluorescence emission of the substrate upon hydrolysis (temperature control set at 30° C.; λexc=328 nm and λem=393 nm)
(§3) The enzyme (final concentration=0.23 and 0.17 nM for the human and mouse MMP-9, respectively) was preincubated with various concentrations (0-50 nM) of M0237-D02 for 1 h at 30° C. The substrate was then added to a final concentration ranging from 5 to 40 μM and initial rates were recorded.
(§4) Each data point was measured in triplicate, and initial rates were averaged.
(§5) Averaged initial rates were plotted against the M0237-D02 concentration for each substrate concentration, and IC50's were calculated using the following equation: […]
(§6) The IC50 values were then plotted against the substrate concentration.

[1] = target: T2, Human MMP-9 catalytic domain (Homo sapiens, UniProt P14780); assay: as above; type: biochemical; details: fluorogenic peptide substrates
T2 construct: Human MMP-9 catalytic domain (BIOMOL, SE-244); purchased BIOMOL SE-244
Protocol: as §1, §2, §3, §4, §5, §6

T1 sequence (P41245 108-730): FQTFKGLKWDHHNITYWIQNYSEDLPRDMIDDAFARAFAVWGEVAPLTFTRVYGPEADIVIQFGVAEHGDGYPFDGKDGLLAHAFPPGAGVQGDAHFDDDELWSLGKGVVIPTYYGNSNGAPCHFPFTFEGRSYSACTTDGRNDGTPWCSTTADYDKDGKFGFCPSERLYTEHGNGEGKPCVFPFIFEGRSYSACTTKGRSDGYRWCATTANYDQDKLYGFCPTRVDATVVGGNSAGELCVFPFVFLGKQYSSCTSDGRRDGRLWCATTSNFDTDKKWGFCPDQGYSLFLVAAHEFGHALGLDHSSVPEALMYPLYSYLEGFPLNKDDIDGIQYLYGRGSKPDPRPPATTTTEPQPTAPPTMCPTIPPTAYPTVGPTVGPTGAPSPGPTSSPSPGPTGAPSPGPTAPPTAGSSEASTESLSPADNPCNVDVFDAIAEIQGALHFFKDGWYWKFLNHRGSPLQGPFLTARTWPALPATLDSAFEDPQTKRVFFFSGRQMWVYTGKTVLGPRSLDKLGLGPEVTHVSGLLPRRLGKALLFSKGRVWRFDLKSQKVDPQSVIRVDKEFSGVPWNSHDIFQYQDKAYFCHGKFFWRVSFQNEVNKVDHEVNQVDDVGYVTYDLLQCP
T2 sequence (P14780 107-444 limits assumed): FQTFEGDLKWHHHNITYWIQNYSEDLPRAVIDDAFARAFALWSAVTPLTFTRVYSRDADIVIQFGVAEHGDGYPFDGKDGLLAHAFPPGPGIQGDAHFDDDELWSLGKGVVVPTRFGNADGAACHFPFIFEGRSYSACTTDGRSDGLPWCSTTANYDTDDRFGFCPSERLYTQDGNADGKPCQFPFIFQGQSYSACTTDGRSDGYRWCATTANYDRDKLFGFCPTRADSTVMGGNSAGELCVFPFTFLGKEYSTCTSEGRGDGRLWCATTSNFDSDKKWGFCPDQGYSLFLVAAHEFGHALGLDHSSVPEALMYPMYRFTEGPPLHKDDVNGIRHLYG

inhibition model (Mouse MMP-9): non competitive inhibitor
inhibition model [1]: non competitive inhibitor
B1: M0237-D02: MMP-9/-2 dual reactive antibody inhibitor (parental); sFab and hIgG1 (antibody, V domains shown)
VH: EVQLLESGGGLVQPGGSLRLSCAASGFTFSQYPMWWVRQAPGKGLEWVSYIVPSGGRTYYADSVKGRFTISRDNSKNTLYLQMNSLRAEDTAVYYCAKDRAYGDYVGWNGFDYWGQGTLVTVSS
VL: DIQMTQSPATLSLSPGERATLSCRASQSISSFLAWYQQKPGQAPRLLIYDASYRATGIPARFSGSGSGTDFTLTISSLEPEDYAVYYCQQRGNWPITFGQGTRLEIK
